The supplement of paper PMC7125110
± gives the standard error. For some of these results: Fewer inactive variants are shown than the library holds.

B1: glmS ribozyme (parent)
chain: AUAAAAGCGCCAGAACUACAGAAAUGUAGUUGACGAGGAGGAGGUUUAUCGAAUUUUCGGCGGAUGCCUCCAAA

What was measured:
Conditions in all cases: with glucosamine-6-phosphate
glucosamine-6-phosphate [1] = variants of: B1; test: kcat; higher = faster cleavage; RNA array
Procedure, shortened: (§1)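 Glucosamine-6-phosphate in HEPES/KCl/Mg(OAc)2 buffer, at 40 μM to 10 mM, was flowed over barcoded ribozyme variants transcribed in situ by E. coli RNA polymerase on sequenced MiSeq chips. Tracking was through a hybridised Cy3 probe at 37 °C. kobs, kcat and KM came from exponential decay fits and weighted Michaelis–Menten fits of normalised per-tile medians.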

glucosamine-6-phosphate [2] = variants of: B1; test: KM; higher = weaker cofactor use; RNA array
Procedure, shortened: as §1

glucosamine-6-phosphate [3] = variants of: B1; test: self-cleavage kobs at 40 uM GlcN6P; higher = faster cleavage; RNA array
Procedure, shortened: as §1

glucosamine-6-phosphate [4] = variants of: B1; test: self-cleavage kobs at 2500 uM GlcN6P; higher = faster cleavage; RNA array
Procedure, shortened: as §1

glucosamine-6-phosphate [5] = variants of: B1; test: self-cleavage kobs at 160 uM GlcN6P; higher = faster cleavage; RNA array
Procedure, shortened: as §1

glucosamine-6-phosphate [6] = variants of: B1; test: self-cleavage kobs at 640 uM GlcN6P; higher = faster cleavage; RNA array
Procedure, shortened: as §1

glucosamine-6-phosphate [7] = variants of: B1; test: self-cleavage kobs at 10000 uM GlcN6P; higher = faster cleavage; RNA array
Procedure, shortened: as §1

Variant	kcat (glucosamine-6-phosphate [1]) [s⁻¹]	KM (glucosamine-6-phosphate [2]) [µM]	self-cleavage kobs at 40 uM GlcN6P (glucosamine-6-phosphate [3]) [s⁻¹]	self-cleavage kobs at 2500 uM GlcN6P (glucosamine-6-phosphate [4]) [s⁻¹]	self-cleavage kobs at 160 uM GlcN6P (glucosamine-6-phosphate [5]) [s⁻¹]	self-cleavage kobs at 640 uM GlcN6P (glucosamine-6-phosphate [6]) [s⁻¹]	self-cleavage kobs at 10000 uM GlcN6P (glucosamine-6-phosphate [7]) [s⁻¹]
G43U A53G	4.73e-05 ± 1.7e-06	793 ± 120	< 1e-05	3.6e-05 ± 1.5e-05			
G43C C68G	0.0157 ± 0.0024	265 ± 63	0.00205 ± 0.00027	0.0139 ± 0.0031	0.00622 ± 0.0014	0.0109 ± 0.0018	
G43A C70U	6.4e-05 ± 1.2e-05			4.94e-05 ± 8.8e-06			5.31e-05 ± 8.3e-06
G43U U56C	< 1e-05			< 1e-05	< 1e-05		
G44U U56A	0.000132 ± 9e-06	2840 ± 550	< 1e-05	6.59e-05 ± 1e-05			0.000102 ± 9.4e-06
U45A A64C	0.000366 ± 4.6e-05	2520 ± 570		0.000193 ± 3.8e-05		7.26e-05 ± 1.9e-05	0.000277 ± 7.6e-05
A42U U45G	0.00034 ± 6.6e-05	1880 ± 720		0.000225 ± 3.8e-05	4.68e-05 ± 1.4e-05	7.31e-05 ± 1.5e-05	0.000278 ± 4.1e-05
A42U U45A	0.000149 ± 2.4e-05	1500 ± 680		0.000134 ± 2.6e-05		3.93e-05 ± 1e-05	0.000123 ± 1.6e-05
G44A U45G	0.00378 ± 0.00039	1850 ± 280	9.22e-05 ± 1.8e-05	0.00218 ± 0.00031	0.000285 ± 6.4e-05	0.000889 ± 0.00016	0.0033 ± 0.0007
U45C C68G	9.46e-05 ± 8.6e-06	714 ± 250		8.62e-05 ± 1.5e-05		4.14e-05 ± 1.1e-05	8.34e-05 ± 1.2e-05
U45A C58G	0.000316 ± 8.7e-05			0.000129 ± 3.2e-05			0.000222 ± 4.9e-05
U45A C58U	0.000219 ± 4.8e-05	4210 ± 1900	< 1e-05	9.07e-05 ± 1.6e-05			0.000149 ± 2.4e-05
U45A C58A	0.00117 ± 0.00038			0.000822 ± 0.00019		0.000188 ± 3.8e-05	0.000803 ± 0.00016
U45A C70A	0.000375 ± 0.00017			0.000225 ± 3.4e-05	2.63e-05 ± 1.1e-05	0.000179 ± 3.7e-05	
G43U A64G	0.000133 ± 1.2e-05	6370 ± 1300		3.85e-05 ± 8.6e-06			8.1e-05 ± 8.2e-06
G44A U46G	0.000265 ± 5.2e-05			0.000213 ± 4.4e-05		0.000114 ± 2.6e-05	0.000221 ± 4.7e-05
G44A U55G	0.000367 ± 0.00015			0.000228 ± 4.2e-05		0.000141 ± 3.3e-05	
